Results: EP3411068A2 (dated 2018)

Key:
[1] = target: T1, human VEGFR2-Fc (human, UniProt P35968 20-764); assay: binding assay as in Example 2 (Figure 42)
T1 construct: also called hVEGFR2; recombinant human VEGFR2

[2] = target: T2, human PDL1-Fc (human, UniProt Q9NZQ7 19-238); assay: binding assay as in Example 2 (Figure 42)
T2 construct: also called hPDL1; hPDLl

[3] = target: T3, mouse PDL1 expressed on B16-F10 cells (mouse, UniProt Q9EP73 19-290); assay: flow cytometry on B16-F10 cells
T3 construct: whole, on cells; also called B16-F10 (mPDLl); cell expressed mouse PDL1
T3 sequence (Q9EP73 19-290): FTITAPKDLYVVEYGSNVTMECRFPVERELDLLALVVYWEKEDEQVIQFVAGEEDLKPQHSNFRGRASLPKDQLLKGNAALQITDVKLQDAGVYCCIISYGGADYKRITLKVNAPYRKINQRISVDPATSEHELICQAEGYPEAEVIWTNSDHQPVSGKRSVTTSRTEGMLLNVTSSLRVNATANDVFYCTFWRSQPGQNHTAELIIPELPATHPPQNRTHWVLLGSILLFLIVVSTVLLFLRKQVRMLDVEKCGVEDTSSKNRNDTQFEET

[4] = target: T4, human VEGFR2 expressed on KDR-PAE cells (human, UniProt P35968 20-1356); assay: flow cytometry on KDR-PAE cells
T4 construct: whole, on cells; also called PAE-KDR; KDR-PAE (hVEGFR2)
T4 sequence (P35968 20-1356): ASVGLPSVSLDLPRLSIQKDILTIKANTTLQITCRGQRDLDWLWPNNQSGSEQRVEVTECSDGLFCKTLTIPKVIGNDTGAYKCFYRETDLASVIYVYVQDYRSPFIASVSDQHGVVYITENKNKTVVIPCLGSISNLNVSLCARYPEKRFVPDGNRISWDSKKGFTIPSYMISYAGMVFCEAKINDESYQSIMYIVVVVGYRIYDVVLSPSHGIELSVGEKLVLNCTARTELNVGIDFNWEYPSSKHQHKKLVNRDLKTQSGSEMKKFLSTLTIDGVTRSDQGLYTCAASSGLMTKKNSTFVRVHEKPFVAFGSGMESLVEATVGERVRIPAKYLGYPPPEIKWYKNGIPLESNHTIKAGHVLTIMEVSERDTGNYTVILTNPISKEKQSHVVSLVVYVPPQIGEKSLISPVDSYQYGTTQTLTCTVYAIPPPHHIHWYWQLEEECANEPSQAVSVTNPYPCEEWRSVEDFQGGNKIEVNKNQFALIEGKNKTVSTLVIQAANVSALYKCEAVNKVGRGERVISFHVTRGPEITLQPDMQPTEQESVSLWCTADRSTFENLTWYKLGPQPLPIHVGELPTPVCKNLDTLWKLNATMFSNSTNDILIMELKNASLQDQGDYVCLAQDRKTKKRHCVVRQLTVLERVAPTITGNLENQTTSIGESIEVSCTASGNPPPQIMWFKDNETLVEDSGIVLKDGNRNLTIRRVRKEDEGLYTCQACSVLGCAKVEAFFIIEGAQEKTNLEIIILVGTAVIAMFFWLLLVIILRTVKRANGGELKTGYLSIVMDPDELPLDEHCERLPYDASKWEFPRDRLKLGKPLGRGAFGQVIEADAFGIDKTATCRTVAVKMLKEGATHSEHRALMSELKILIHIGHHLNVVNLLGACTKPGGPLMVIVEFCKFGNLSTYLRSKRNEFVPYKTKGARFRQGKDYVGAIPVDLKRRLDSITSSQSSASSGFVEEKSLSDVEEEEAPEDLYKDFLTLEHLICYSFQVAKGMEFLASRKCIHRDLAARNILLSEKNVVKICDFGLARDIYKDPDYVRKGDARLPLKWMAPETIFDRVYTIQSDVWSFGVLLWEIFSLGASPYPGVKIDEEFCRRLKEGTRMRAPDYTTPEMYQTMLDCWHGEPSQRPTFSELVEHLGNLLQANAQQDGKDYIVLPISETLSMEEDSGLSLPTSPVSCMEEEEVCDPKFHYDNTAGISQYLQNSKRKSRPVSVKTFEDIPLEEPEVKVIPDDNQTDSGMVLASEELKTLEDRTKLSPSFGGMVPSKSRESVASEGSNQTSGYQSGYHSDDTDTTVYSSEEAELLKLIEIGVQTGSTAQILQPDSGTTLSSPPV

[5] = target: T5, human PDL1 expressed on MDA-MB-231 cells (human, UniProt Q9NZQ7 19-290); assay: flow cytometry on MDA-MB-231 cells
T5 construct: whole, on cells; also called cell expressed human PDL1
T5 sequence (Q9NZQ7 19-290): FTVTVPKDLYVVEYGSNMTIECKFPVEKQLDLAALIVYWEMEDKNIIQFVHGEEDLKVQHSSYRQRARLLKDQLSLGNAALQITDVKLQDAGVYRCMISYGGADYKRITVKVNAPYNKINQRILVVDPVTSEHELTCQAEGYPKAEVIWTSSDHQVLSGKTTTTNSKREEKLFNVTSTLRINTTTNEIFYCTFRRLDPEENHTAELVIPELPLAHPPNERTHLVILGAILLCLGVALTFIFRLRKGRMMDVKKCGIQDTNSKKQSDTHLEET

[6] = target: T1, human VEGFR2-Fc; assay: blocking ELISA, hVEGFR2-Fc binding to coated hVEGF
[7] = target: T6, mouse VEGFR2-Fc (mouse, UniProt P35918 20-762); assay: blocking ELISA, mVEGFR2-Fc binding to coated mVEGF
T6 construct: also called mVEGFR2; recombinant mouse VEGFR2
T6 sequence (P35918 20-762 limits assumed): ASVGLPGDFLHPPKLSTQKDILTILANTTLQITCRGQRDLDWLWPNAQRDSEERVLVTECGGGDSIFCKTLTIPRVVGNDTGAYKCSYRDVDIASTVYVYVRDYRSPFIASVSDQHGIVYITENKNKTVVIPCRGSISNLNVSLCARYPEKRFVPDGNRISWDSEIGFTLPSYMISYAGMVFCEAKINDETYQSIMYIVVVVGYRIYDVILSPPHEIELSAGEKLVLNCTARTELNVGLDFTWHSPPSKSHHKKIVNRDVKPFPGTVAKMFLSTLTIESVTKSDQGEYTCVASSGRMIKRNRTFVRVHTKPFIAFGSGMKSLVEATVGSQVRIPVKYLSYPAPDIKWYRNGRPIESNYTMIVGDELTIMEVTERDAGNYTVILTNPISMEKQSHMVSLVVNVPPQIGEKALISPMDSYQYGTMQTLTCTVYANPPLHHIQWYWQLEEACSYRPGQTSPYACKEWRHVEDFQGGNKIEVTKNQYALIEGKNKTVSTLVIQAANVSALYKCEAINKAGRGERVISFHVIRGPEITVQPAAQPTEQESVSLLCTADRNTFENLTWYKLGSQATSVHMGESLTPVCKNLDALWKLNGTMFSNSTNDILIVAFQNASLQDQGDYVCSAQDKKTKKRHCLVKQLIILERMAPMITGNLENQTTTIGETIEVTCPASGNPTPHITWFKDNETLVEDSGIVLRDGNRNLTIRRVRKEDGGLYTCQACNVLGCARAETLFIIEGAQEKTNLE

[8] = target: T1, human VEGFR2-Fc; assay: dose response ELISA, antigen-Fc coated, HRP anti-human Fab
[9] = target: T6, mouse VEGFR2-Fc; assay: as above
[10] = target: T2, human PDL1-Fc; assay: as above
[11] = target: T7, mouse PDL1-Fc (mouse, UniProt Q9EP73 19-239, limits assumed); assay: as above
T7 construct: also called mPDL1; mPDLl
T7 sequence (Q9EP73 19-239 limits assumed): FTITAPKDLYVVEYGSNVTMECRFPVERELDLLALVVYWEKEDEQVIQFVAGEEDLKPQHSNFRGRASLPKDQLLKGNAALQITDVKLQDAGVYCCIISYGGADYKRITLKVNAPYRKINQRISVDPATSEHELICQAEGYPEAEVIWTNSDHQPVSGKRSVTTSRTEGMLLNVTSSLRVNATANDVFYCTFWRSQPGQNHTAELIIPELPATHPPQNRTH

[12] = target: T2, human PDL1-Fc; assay: blocking ELISA, biotin hPDL1-Fc binding to immobilized hPD1
[13] = target: T7, mouse PDL1-Fc; assay: blocking ELISA, biotin mPDL1-Fc binding to immobilized mPD1
[14] = target: T2, human PDL1-Fc; assay: SPR (Biacore), hPDL1-Fc immobilized on CM5, antibody injected, 1:1 Langmuir
[15] = target: T1, human VEGFR2-Fc; assay: SPR (Biacore), hVEGFR-Fc immobilized on CM5, antibody injected, 1:1 Langmuir

T2 sequence (Q9NZQ7 19-238 limits assumed): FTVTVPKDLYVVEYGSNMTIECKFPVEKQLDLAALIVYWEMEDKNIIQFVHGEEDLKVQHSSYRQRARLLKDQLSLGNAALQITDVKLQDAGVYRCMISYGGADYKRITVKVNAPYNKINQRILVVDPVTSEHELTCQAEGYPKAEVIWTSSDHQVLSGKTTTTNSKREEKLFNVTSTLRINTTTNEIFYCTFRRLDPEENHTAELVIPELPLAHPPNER
T1 sequence (P35968 20-764 limits assumed): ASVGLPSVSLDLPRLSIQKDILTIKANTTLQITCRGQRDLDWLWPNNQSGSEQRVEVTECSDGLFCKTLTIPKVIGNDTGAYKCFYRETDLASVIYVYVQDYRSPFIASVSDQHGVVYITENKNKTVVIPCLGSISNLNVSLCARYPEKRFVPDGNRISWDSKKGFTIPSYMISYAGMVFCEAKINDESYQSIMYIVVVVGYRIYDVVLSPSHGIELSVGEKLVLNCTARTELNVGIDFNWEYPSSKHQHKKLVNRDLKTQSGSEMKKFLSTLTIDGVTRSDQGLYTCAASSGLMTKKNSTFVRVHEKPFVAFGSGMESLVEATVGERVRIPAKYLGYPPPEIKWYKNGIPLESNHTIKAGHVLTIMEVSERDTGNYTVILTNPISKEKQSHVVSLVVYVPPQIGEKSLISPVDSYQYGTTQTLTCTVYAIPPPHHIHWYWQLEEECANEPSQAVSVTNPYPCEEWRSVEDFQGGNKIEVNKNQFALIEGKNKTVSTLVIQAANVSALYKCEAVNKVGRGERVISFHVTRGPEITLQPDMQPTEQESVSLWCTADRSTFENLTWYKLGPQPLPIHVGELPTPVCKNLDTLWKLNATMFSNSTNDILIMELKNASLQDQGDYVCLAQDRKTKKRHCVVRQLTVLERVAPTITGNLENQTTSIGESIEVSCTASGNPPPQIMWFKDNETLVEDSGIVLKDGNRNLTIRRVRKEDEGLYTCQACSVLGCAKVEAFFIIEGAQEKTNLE

binding result [1] | binding result [2] | EC50 [4] | IC50 [6] | EC50 [8] | Kd [15] | Binder | other results
binds | binds |  |  |  |  | BsAb (A11-B1A1) (bispecific antibody, human IgG1, kappa, L234A L235A) heavy: not shown light: DIQMTQSPSSLSASVGDRVTITCRASQTVSKYFNWFQQKPGEAPKLLIYATSTLQSGVPSRFSGSGYGTEFTLTISSLQPEDFATYYCQQSYTTPWTFGQGTKVEIKRTVAAPSVFIFPPSDEQLKSGTASVVCLLNNFYPREAKVQWKVDNALQSGNSQESVTEQDSKDSTYSLSSTLTLSKADYEKHKVYACEVTHQGLSSPVTKSFNRGEC | 
binds | binds |  |  |  |  | BsAb (D7A8-B1A1)_30cc (bispecific antibody, human IgG1, lambda, L234A L235A, Variant of BsAb (D7A8-B1A1), apparently with the 30GS linker and an added disulfide bond in the scFv; also called BsAb (D7A8-BlAl)_30cc) heavy: not shown light: QSALTQPASVSGSPGQSITISCTGTSSDVGAYNYVSWYQQHPGKAPKLMIYDVSNRPSGVSNRFSGSKSGNTASLTISGLQAEDEADYYCSSYTSSSTRVFGTGTKVTVLGQPKAAPSVTLFPPSSEELQANKATLVCLISDFYPGAVTVAWKADSSPVKAGVETTKPSKQSNNKYAASSYLSLTPEQWKSHRSYSCQVTHEGSTVEKTVAPTECS | 
 |  | 779 pM | 1190 pM | 128 pM | ~200 pM | BsAb (A1-A8)-LALA (bispecific antibody, human IgG1, lambda, LALA version: leucines 234 and 235 of the IgG1 CH2 mutated to alanine; also called bi-specific antibody A1-A8; A18) heavy: not shown light: QSVLTQPPSVSVSPGQTASITCSGEKLGDEYASWYQQKPGQSPVLVIYQDNKRPSGIPERFSGSNSGNTATLTISGTQAMDEADYYCQAWDSSTLLFGGGTKLTVLGQPKAAPSVTLFPPSSEELQANKATLVCLISDFYPGAVTVAWKADSSPVKAGVETTKPSKQSNNKYAASSYLSLTPEQWKSHRSYSCQVTHEGSTVEKTVAPTECS | EC50 [3]: 113 pM; EC50 [5]: 402 pM; EC50 [10]: 88 pM; EC50 [11]: 160 pM; IC50 [12]: 2510 pM; IC50 [13]: 3200 pM; Kd [14]: ~3.2 pM
 |  | 522 pM | 1720 pM | 107 pM | 52 pM | B1C4A7 (antibody, human IgG1, kappa, V domains shown, Parental mono-specific anti-VEGFR2 IgG1; also called anti-VEGFR2 antibody B1C4A7) VH: EVQLLESGGGLVQPGGSLRLSCAASGFTFSWYVMGWVRQAPGKGLEWVSSIYPQGGATSYADSVKGRFTISRDNSKNTLYLQMNSLRAEDTAVYYCARGNYFDYWGQGTLVTVSS VL: DIQMTQSPGTLSLSPGEGATLSCRASQSVSSNYFGWYQQKPGQAPRLLIYGASSRATGIPDRFSGSGSGTDFTLTISRLEPEDSAVYYCQQFDSLPLTFGGGTKVEIKR | IC50 [7]: 973 pM; EC50 [9]: 466 pM

Further lines, the binder ahead of its results:

Binder | binding result [1] | binding result [2] | EC50 [4] | IC50 [6] | EC50 [8] | Kd [15] | other results
BsAb (A11-B1A1)_30 (bispecific antibody, human IgG1, kappa, L234A L235A) heavy: not shown light: DIQMTQSPSSLSASVGDRVTITCRASQTVSKYFNWFQQKPGEAPKLLIYATSTLQSGVPSRFSGSGYGTEFTLTISSLQPEDFATYYCQQSYTTPWTFGQGTKVEIKRTVAAPSVFIFPPSDEQLKSGTASVVCLLNNFYPREAKVQWKVDNALQSGNSQESVTEQDSKDSTYSLSSTLTLSKADYEKHKVYACEVTHQGLSSPVTKSFNRGEC | binds | binds |  |  |  |  | 
BsAb (A11-B1A1)_30cc (bispecific antibody, human IgG1, kappa, L234A L235A, Variant of BsAb (A11-B1A1), apparently with the 30GS linker and an added disulfide bond in the scFv; also called BsAb (Al l-BlAl)_30cc) heavy: not shown light: DIQMTQSPSSLSASVGDRVTITCRASQTVSKYFNWFQQKPGEAPKLLIYATSTLQSGVPSRFSGSGYGTEFTLTISSLQPEDFATYYCQQSYTTPWTFGQGTKVEIKRTVAAPSVFIFPPSDEQLKSGTASVVCLLNNFYPREAKVQWKVDNALQSGNSQESVTEQDSKDSTYSLSSTLTLSKADYEKHKVYACEVTHQGLSSPVTKSFNRGEC | binds | binds |  |  |  |  | 
BsAb (D7A8-B1A1) (bispecific antibody, human IgG1, lambda, L234A L235A) heavy: not shown light: QSALTQPASVSGSPGQSITISCTGTSSDVGAYNYVSWYQQHPGKAPKLMIYDVSNRPSGVSNRFSGSKSGNTASLTISGLQAEDEADYYCSSYTSSSTRVFGTGTKVTVLGQPKAAPSVTLFPPSSEELQANKATLVCLISDFYPGAVTVAWKADSSPVKAGVETTKPSKQSNNKYAASSYLSLTPEQWKSHRSYSCQVTHEGSTVEKTVAPTECS | binds | binds |  |  |  |  | 
BsAb (D7A8-B1A1)_30 (bispecific antibody, human IgG1, lambda, L234A L235A, Variant of BsAb (D7A8-B1A1), apparently with the 30GS linker) heavy: not shown light: QSALTQPASVSGSPGQSITISCTGTSSDVGAYNYVSWYQQHPGKAPKLMIYDVSNRPSGVSNRFSGSKSGNTASLTISGLQAEDEADYYCSSYTSSSTRVFGTGTKVTVLGQPKAAPSVTLFPPSSEELQANKATLVCLISDFYPGAVTVAWKADSSPVKAGVETTKPSKQSNNKYAASSYLSLTPEQWKSHRSYSCQVTHEGSTVEKTVAPTECS | binds | binds |  |  |  |  | 
BsAb (A7-A8)-LALA (bispecific antibody, human IgG1, kappa, LALA version: leucines 234 and 235 of the IgG1 CH2 mutated to alanine; also called bi-specific antibody A7-A8) heavy: not shown light: DIQMTQSPGTLSLSPGEGATLSCRASQSVSSNYFGWYQQKPGQAPRLLIYGASSRATGIPDRFSGSGSGTDFTLTISRLEPEDSAVYYCQQFDSLPLTFGGGTKVEIKRTVAAPSVFIFPPSDEQLKSGTASVVCLLNNFYPREAKVQWKVDNALQSGNSQESVTEQDSKDSTYSLSSTLTLSKADYEKHKVYACEVTHQGLSSPVTKSFNRGEC |  |  | 533 pM | 1290 pM | 128 pM | ~47 pM | EC50 [3]: 122 pM; EC50 [5]: 223 pM; IC50 [7]: 801 pM; EC50 [9]: 598 pM; EC50 [10]: 79 pM; EC50 [11]: 137 pM; IC50 [12]: 2510 pM; IC50 [13]: 5590 pM; Kd [14]: ~1.2 pM
